In patent US20210196823A1, “Methods of Treating Metabolic Disease” (Pfizer Inc., priority 2018, published 2021):

Tests used:
[1] = test system: ERFE suppression of hepcidin production; assay: NanoLuc assay: anti-ERFE antibody with monoFC-huErfe and BMP6; format: cell-based; conditions: tripling dilutions from 500 nM, BMP6 625 pM, monoFC-huErfe 20 nM
Experimental: The was measured in-vitro using as follows: A hepcidin transcriptional fusion reporter assay (nano-luc or nano-luciferase assay) was developed to assess the effect of BMPs on hepcidin production in-vitro. A nanoluciferase reporter was inserted at the end of the coding sequence of the endogenous HAMP gene, in HepG2 hepatoma cells, creating a HAMP-nanoluciferase fusion. CRISPR-Cas9 was used to edit the cells with this knock-in reporter construct. A bovine Growth Hormone poly A was included after the nanoLuc to ensure proper mRNA processing. A Puromycin-TK expression cassette was also included 3′ of the nanoluc reporter to enrich for properly targeted clones. Clones that were homozygous for the HAMP-NanoLuc fusion were selected and tested for their response to BMPs and LDN(4-[6-[4-(1-Piperazinyl)phenyl]pyrazolo[1,5-a]pyrimidin-3-yl]quinoline dihydrochloride), a potent ALK2/3 BMP inhibitor, a schematic of the nano-luc construct is shown in FIG. 1B. The effect of representative BMPs (BMP, 2, 6, 9) on the Hamp-nanoLuc signal was assessed. Approximately 20,000 cells (cells split with trypsin/EDTA) were suspended in 200 uL of complete media (DMEM+10% serum+Na pyruvate) and were distributed into each well of 96-well plates and incubated for 24 hours at 37 C. […] Plates were read on Envision with Lum700 program following the manufacturer's instructions. […]

murine ERFE = target: T1, murine ERFE (Mus musculus, UniProt Q6PGN1); assay: HAMP and ID1 qRT-PCR in HUH7 cells with BMP 5, 6 or 7, murine ERFE and anti-ERFE antibody 15.1; format: cell-based; conditions: BMP 5, 6 or 7 2 nM, murine ERFE 1 μg/ml, antibody 10 μg/ml, 6 h
T1 sequence (Q6PGN1 25-340): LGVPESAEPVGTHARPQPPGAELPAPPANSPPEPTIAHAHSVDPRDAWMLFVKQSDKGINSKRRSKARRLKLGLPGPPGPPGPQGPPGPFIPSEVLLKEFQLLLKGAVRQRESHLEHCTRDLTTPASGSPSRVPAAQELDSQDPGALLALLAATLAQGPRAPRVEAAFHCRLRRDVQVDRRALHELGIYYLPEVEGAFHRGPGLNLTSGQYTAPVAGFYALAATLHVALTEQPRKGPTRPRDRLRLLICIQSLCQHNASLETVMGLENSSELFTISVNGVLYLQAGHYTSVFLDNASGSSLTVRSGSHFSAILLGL
Experimental: HUH7 cells treated with BMP 5, 6 or 7 (2 nM), murine ERFE (1 μg/ml) and anti-ERFE antibody 15.1 (10 μg/ml), alone or in combination, for 6 h. HAMP and ID1 gene expression was measured by qRT-PCR and expressed as fold-change relative to untreated cells, FIGS. 11A and 11B.

B1: Ab 15.1: neutralising anti-ERFE antibody; heavy and light chain SEQ ID NO: 26 and 27 (antibody)
heavy: EVQLQQSGPELVKPGASVKMSCKASGYTFTDYSMHWVKQSHGKSLEWIGYINPNSGGTSYNQKFKGKATLTVNKSSSTAYMELRSLTSEDSAVYYCVPYGYDDYWGQGTTLTVSSAKTTAPSVYPLAPVCGDTTGSSVTLGCLVKGYFPEPVTLTWNSGSLSSGVHTFPAVLQSDLYTLSSSVTVTSSTWPSQSITCNVAHPASSTKVDKKIEPRGPTIKPCPPCKCPAPNLEGGPSVFIFPPKIKDVLMISLSPIVTCVVVDVSEDDPDVQISWFVNNVEVHTAQTQTHREDYNSTLRVVSALPIQHQDWMSGKAFACAVNNKDLPAPIERTISKPKGSVRAPQVYVLPPPEEEMTKKQVTLTCMVTDFMPEDIYVEWTNNGKTELNYKNTEPVLDSDGSYFMYSKLRVEKKNWVERNSYSCSVVHEGLHNHHTTKSFSRTPG
light: DVLMTQTPLSLPVSLGDQVSISCRSSQSIVHSNGNTYLEWYLQKPGQSPKLLIYKVSNRFSGVPDRFSGSGSGTDFTLRITRVAAEDLGVYYCFQGSHVPLTFGAGTKLELKRTDAAPTVSIFPPSSEQLTSGGASVVCFLNNFYPKDINVKWKIDGSERQNGVLNSWTDQDSKDSTYSMSSTLTLTKDEYERHNSYTCEATHKTSTSPIVKSFNRNEC
B1 was tested, and the “inhibition of ERFE suppression of hepcidin production” value [1] was “inhibit ERFE suppression of hepcidin production in a dose-dependent manner” and the “block of ERFE activity on BMPs (HAMP and ID1 expression)” value (murine ERFE) was “prevent BMP inhibition”.
